Source: paper PMC9237115 (2022)
Where two headings read alike, the source gives them in different places.

Key:
[1] = target: Cdk2-phosphorylated Tau (PTau^Cdk2) (human, UniProt P10636-8 1-441, phosphorylated in vitro by Cdk2/CyA2, heterogeneously; LC-MS/MS confirmed phosphorylation of the AT8 (S202 and T205), AT180 (T231 and S235) and PHF1 (S396 and S404) epitopes; full list of sites in …); assay: Cdk2-phosphorylated Tau
[2] = target: T1, Full-length human Tau (MAPT) (human, UniProt P10636-8 1-441); assay: previously reported (ref 2)
T1 sequence (P10636 other isoform, or with tags, fused parts or gaps): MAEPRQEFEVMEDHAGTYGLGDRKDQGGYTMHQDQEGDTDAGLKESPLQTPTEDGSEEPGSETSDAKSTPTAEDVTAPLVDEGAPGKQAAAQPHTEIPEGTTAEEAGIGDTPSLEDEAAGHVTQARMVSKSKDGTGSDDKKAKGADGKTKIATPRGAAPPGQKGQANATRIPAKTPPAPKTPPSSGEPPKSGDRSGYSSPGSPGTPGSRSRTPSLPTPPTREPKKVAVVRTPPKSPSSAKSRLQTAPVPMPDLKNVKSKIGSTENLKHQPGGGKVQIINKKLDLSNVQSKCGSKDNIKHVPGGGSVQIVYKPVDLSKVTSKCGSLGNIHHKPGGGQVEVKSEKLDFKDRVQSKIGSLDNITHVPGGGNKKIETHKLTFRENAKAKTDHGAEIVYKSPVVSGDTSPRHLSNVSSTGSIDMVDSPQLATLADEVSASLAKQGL

[3] = target: T1, Full-length human Tau (MAPT)

Sequence of Cdk2-phosphorylated Tau (PTau^Cdk2) (P10636 other isoform, or with tags, fused parts or gaps): as above

Kd [1]: 27.9 µM | Kd [2]: 4.8 µM | Kd [3]: 4.1 µM
B1: Hsp90 (HSP90AB1) (natural protein)
chain: not shown
